Test results reported in patent publication US20110129488A1, “IMMUNOTHERAPY COMPOSITIONS FOR THE TREATMENT AND PREVENTION OF AMYLOIDOSIS” (MEDIVET PHARMA, S.L., priority 2008, published 2011).
Where no end group is shown, it is not given here.

Columns and labels:
[1] = target: Abeta 1-40 peptide (Canis lupus familiaris, UniProt Q28280); assay: Anti-Abeta IgG titration (ELISA) of serum from immunized rabbits; format: in vivo, rabbit
Experimental: To design a veterinary vaccine composition that generates a high level of high affinity antibodies with cross reactivity to the soluble Abeta 1-40 peptide and the plaques in the CNS of dogs with CDS, the relative immunogeneicity of the synthesized sequences of example 1 were characterized separately. To do that, SEQ ID NO 1 and SEQ ID NO 3 were administered conjugated with KLH and mixed with 1 mg of Alum (Sigma, St Louis, U.S.A.) an adjuvant of general veterinary use. The relative immunogenicity of the two peptide sequences was compared according to standard titration of the immune products generated.
Experiments were performed in adult female New Zealand White rabbits weighing between 1.5-2 kg at the beginning of the study. They were kept on a 12 h light/12 h dark cycle and housed with free access to food and water. All animals were manipulated according to the European legislation (86/609/EEC) for animal handling and experimentation. Procedures were approved by the Ethic Committee of the Universitat de Barcelona, under supervision of the Generalitat de Catalunya; all efforts were made to minimize animal suffering and to use only the number of animals necessary to produce reliable scientific data.
Rabbits were subcutaneously immunized with 100 μg of peptide from either: a) SEQ ID NO 3 conjugated with KLH and 1 mg Alum used as adjuvant (n=2); b) SEQ ID NO 1 conjugated with KLH and 1 mg Alum used as adjuvant (n=2); or c) KLH and 1 mg Alum (no peptide n=2). The immunization protocol consisted of a dose subcutaneously delivered up to six sites near the back of the neck, and repeated at days 11, 21, 31 and 41.
Samples of serum were collected from each rabbit at days 0, 21, 31 and 51. Each time, 5 ml blood samples were collected from the ear marginal vein in plastic tubes with no additive. At day 71 rabbits were anaesthetized and exanguinated. Blood samples were then kept at room temperature (RT) for 30 min, afterwards they were centrifuged for 10 min at 3000 rpm. Supernatants were collected as serum samples, aliquoted and stored at −80° C.
Titration of serum samples to detect the presence of antibodies that had been raised by SEQ ID NO 1 and SEQ ID NO 3 was performed by Enzime-Linked Immunosorbent Assays (ELISA) on 96-well plates developed by the biotin-avidin-peroxidase method. Plate sensitization was made overnight at 4° C. with 2 μg/ml of Abeta 1-40 peptide diluted in 50 mM NaHCO3, pH 9.6. […] After washing, specific binding was detected by incubation with Biotin conjugated anti-Rabbit IgG antibody (Sigma, St. Louis, Mo., U.S.A) diluted 1/20000 in TBS for 1 hour at RT. […] Plates were densitometrically analyzed at 450 nm with a Tecan Sunrise Absorbance Reader apparatus (Tecan Iberica, Madrid, Spain). […]

[2] = target: T1, canine Abeta 1-40 peptide (Canis lupus familiaris, UniProt Q28280); assay: ELISA titration of affinity-purified antibodies from rabbit serum; format: binding, dog
T1 construct: made in house; host or cells: chemical synthesis (Fmoc solid phase), no expression host
Description: Antibody purification was made by affinity chromatography in columns of 4B Sepharose activated with BrCN (GE healthcare 15gr) according to standard procedures. Synthetic Abeta1-40 peptide (SEQ ID NO 1) was linked to the BrCN and used as antigen for the affinity purification of antibodies. Anti-Abeta28-40 antibodies were purified from rabbit serum samples presenting the highest level of titers, i.e. serum samples collected on day 31 after immunization (example 2). The same was true for serum samples used for purification of anti-Abeta 1-40 antibodies. Purified antibodies were firstly eluted with an acid solution of 100 mM glycine in PBS (pH 2.5) and, then with a basic solution of 100 mM glycine and 4 M urea in PBS (pH 9)
The purified antibodies were quantified by ELISA on 96-well plates developed by the biotin-avidin-peroxidase method. Plate sensitization was made overnight at 4° C. with […] of canine Abeta 1-40 peptide diluted in 50 mM NaHCO3 pH 9.6. The ELISA procedure was then carried out as explained in example 2.

[3] = target: T1, canine Abeta 1-40 peptide; assay: Anti-Abeta IgG titration (ELISA) of serum from immunized dogs; format: in vivo, dog
Experimental: To validate the immunogenicity of the peptide according to the present invention, dogs were immunized with the synthesized Abeta 28-40 peptide (SEQ ID NO 3) and antibody generation was assessed in serum samples by ELISA. To do that, the peptide fragment was administered conjugated with KLH and mixed with 1 mg Alum (Sigma, St. Louis, Mo., U.S.A.), an adjuvant of general veterinary use. The immunogenicity of the Abeta28-40 peptide was compared versus pre-immune serum according to standard titration of the immune products generated.
Male and female dogs of various breeds, sex and ages certified by their medical records from the veterinary hospital Ars Veterinaria of Barcelona, Spain, were used in this study. In all cases, pet owners formally informed approved the treatment of their dogs. All animals were treated according to European legislation on animal experimentation (86/609/EU), and procedures were approved by the Ethical Committee of the University of Barcelona. All efforts were made to minimize animal suffering and to use no more than the number of animals needed for reliable scientific data.
Dogs were subcutaneously immunized with either: a) 100 μg per animal of SEQ ID NO 3 conjugated with KLH and 1 mg Alum used as adjuvant (n=2) or b) 100 μg per animal of KLH and 1 mg Alum (no peptide n=2). […]

[4] = test system: Aβ 1-40 and Aβ 1-42, diffuse plaque; details: aged beagles (8.4-12.4 years) immunized for 2.4 years; several cortical regions; cited from earlier work
[5] = test system: aged beagles; details: aged beagles (8.4-12.4 years) immunized for 2.4 years; cited from earlier work

T1 sequence (Q28280 7-46): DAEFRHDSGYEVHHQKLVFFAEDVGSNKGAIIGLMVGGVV
Sequence of Abeta 1-40 peptide (Q28280 7-46 limits assumed): as the sequence (Q28280 7-46) above

Row | Substance | serum dilution that presents half of the maximal binding (B1/2) ([1]; 100 μg peptide s.c. conjugated with KLH + 1 mg Alum, repeated days 11, 21, 31, 41, serum of day 31) | immunogenic response compared with SEQ ID NO 1 ([1]; comparison of B1/2 dilutions of day 31) | specific production of antibodies in serum samples ([1]; peptide-KLH + Alum s.c., from day 21 following the first immunization) | day of highest levels of immunization ([1]; peptide-KLH + Alum s.c., serum days 0, 21, 31, 51) [days] | titers of anti-Abeta antibodies in the basic elution ([2]; basic elution (100 mM glycine, 4 M urea, pH 9), slightly lower than the acid elution) | titers of specific antibodies against canine Abeta1-40 in purified sera ([2]; day 31 serum of immunized rabbits, affinity purified on Abeta1-40 column) | specific production of anti-Abeta antibodies in serum samples ([3]; 100 μg per animal conjugated with KLH + 1 mg Alum s.c., repeated days 31, 61, 75, day 30 after first immunization) | day of highest values of optic density ([3]; peptide-KLH + Alum s.c., serum days 0, 30, 60, 74, 90) [days] | extent of diffuse plaque accumulation [4] | levels of soluble and insoluble Aβ 1-40 and Aβ 1-42 [4] | measures of learning, spatial attention, or spatial memory [5]
1 | KGAIIGLMVGGVV (also: KLH conjugate) [SEQ ID NO 3, canine Abeta protein amino acids 28 to 40; tested conjugated with KLH plus Alum] | 1/611 | higher immunogenic response | detected | 31 | high titers | High titers | detected | 74 |  |  | 
2 | fibrillar Aβ (1-42): fibrillar Aβ (1-42) formulated with aluminum salt (Alum), Head et al. 2008 |  |  |  |  |  |  |  |  | significantly decreased | significantly decreased | no improvement
